Key:
[1] = system: ESC-induced Oct4-GFP re-activation in NSCs; assay: CLEAR analysis of ESC fusion-induced reprogramming (PEG-induced fusion of Z-Red ESCs and CIPOE NSCs, flow cytometry)
Source text: CLEAR strategy uses engineered ESCs and NSCs for monitoring fusion-induced DsRed expression and reprogramming-induced GFP expression (FIG. 1A). Z-Red ESCs were derived from a clonal ESC line containing one copy of a transgene (CAG-loxP-LacZ::neomycin-polyA-loxP-DsRed.T3) as a Cre recombination excision reporter.
Adult NSCs were isolated from Oct4-GFP (GOF 18-A PE-EGFP) transgenic mice and transduced by retroviruses to stably co-express Cre and the puromycin resistance gene through a bicistronic cassette (termed CIPOE NSCs hereafter). Somatic cells with Oct4-GFP transgene integration have been used previously to investigate reprogramming, in which the regulatory elements of Oct4 direct reliable GFP reactivation from somatic genomes in reprogrammed ESC-like hybrid cells (also see FIG. 3). Multiple CIPOE NSC lines from Oct4-GFP transgenic mice were established, characterized and used for subsequent cell fusion experiments.
To quantitatively analyze the reprogramming-induced Oct4-GFP re-activation, dual-color flow cytometry was used to display and measure the cell population that underwent PEG-induced cell fusion. Viable cells were identified by their typical FSC (Forward Scatter) and SSC (Side Scatter) properties. To ensure appropriate gating for […] and DsRed+ events and to compensate the spectrum crossover of GFP and DsRed signals, the system was first calibrated using multiple control cells, including Z-Red ESCs, CIPOE NSCs, mixed Z-Red ESCs and CIPOE NSCs without PEG. Z-Red ESCs transfected with a constitutive Cre expression plasmid, and CIPOE NSCs transfected with a Cre excision reporter plasmid (FIG. 4A).
ESC fusion-induced Oct4 re-activation from NSCs was quantitatively measured using two different approaches. In the first approach, the reprogramming frequency (Rf) is determined by the ratio of GFP DsRed+ cells to total DsRed+ cells. […] In the second approach, the reprogramming efficacy is determined by the distribution of GFP fluorescence intensities of individual cells from the DsRed+ population (FIG. 4C). This analysis provides a measurement of the efficiency of Oct4-GFP re-activation in NSCs after successful fusion.
The protocol was optimized for PEG-induced cell fusion between ESCs and NSCs to achieve maximum efficiency and minimal toxicity. Equal numbers of ESCs and NSCs were mixed thoroughly and spun down in PBS. The pellet was loosened by gentle tapping and 50% PEG (500 μl for 1×10^7 cells) was added to the cells continuously over one minute while swirling the mixture in 37° C. water bath Next, 2 ml of ESC medium was layered on top of PEG-cell mixture and one-minute incubation in 37° C., followed by low-speed centrifugation at 1,800 rpm for 5 minutes. After removing the supernatant, the pellet was incubated with ESC medium for one minute, washed, resuspended and plated onto gelatin-coated dishes and grown in Dubelcco's Modified Eagle's Medium, 15% fetal bovine serum supplemented with mouse leukemia inhibitory factor (ESGRO), 0.1 mM nonessential amino acids, 0.1 mM β-mercaptoethanol, and 50 U/ml penicillin/50 μg/ml streptomycin (ESC medium). […] The following pharmacological inhibitors were applied in ESC-fusion experiments only during the first 48 hours after fusion. DMOG (5-10 μM; BioMol), Anacardic acid (5-10 μM; Calbiochem), Trichostatin A (TSA, 100 nM-1 μM; Sigma) and azidothymidine (AZT, 1-5 μM; Sigma).

[2] = system: Oct4; assay: Conventional RT-PCR and quantitative PCR of endogenous Oct4 expression in adult NSCs; format: cell-based, mouse
Protocol: (§1) (A) is a schematic drawing of Oct4 promoter with 16 CpG sites, which are located between the proximal enhancer and exon 1. Bisulfite sequencing analysis is performed for genomic DNA extracted from CIPOE, Z-Red ESCs, fusion clone B3, CIPOE-shControl and CIPOE-shG9a NSCs. (B, C) show conventional RT-PCR (B) and quantitative real-time PCR(C) are used to compare the mRNA abundance of Oct4 in CIPOE, Z-Red ESCs, fusion clone B3, CIPOE-shControl and CIPOE-shG9a NSCs. Data represent mean+SEM. (n=3, *. P<0.01, Student's t-test).
Reprogramming requires erasure of the somatic epigenoine including both histone and DNA modification. Next it was further tested whether DNA demethylation of pluripotency gene Oct4 induced by ESC-mediated reprogramming may partially account for the facilitating effects of histone demethylation during reprogramming. […] The impact of G9a knockdown on endogenous Oct4 expression was also evaluated. […] The mRNA abundance of Oct4 expression measured in bulk adult NSC cultures with G9a knocking-down reached around 10% of that in ESCs, while little expression was detected in CIPOE or CIPOE cells expressing the control shRNA.
(§2) For real-time quantitative PCR, total RNAs were purified using RNAeasy kit (Qiagen) and converted to cDNA by SuperScript III (Invitrogen). Triplicate cDNA samples were added to a SYBR-green based quantitative PCR reaction mix and analyzed using the ddCt methods. […]

[3] = system: Oct4 promoter; assay: Bisulfite sequencing of Oct4 promoter in CIPOE NSCs; format: cell-based, mouse; conditions: independent of cell fusion
Protocol: as §1
Reprogramming requires erasure of the somatic epigenoine including both histone and DNA modification. […] The impact of G9a knockdown on endogenous Oct4 expression was also evaluated. […] The mRNA abundance of Oct4 expression measured in bulk adult NSC cultures with G9a knocking-down reached around 10% of that in ESCs, while little expression was detected in CIPOE or CIPOE cells expressing the control shRNA.
For bisulfite genomic sequencing, 500 ng of genomic DNA from each sample was digested by EcoRI overnight, followed by boiling for 5 min and incubation in 0.3 M NaOH at 50° C. for 15 min. […] Efficiency of bisulfite conversion was monitored by the presence of unconverted C residues in non-CpG regions, which were only seldom seen. […]

[4] = system: G9a; assay: Quantitative real-time PCR of G9a expression in CIPOE NSCs; format: cell-based, mouse; conditions: CIPOE cells
Source text: Shown is a summary of quantitative real-time PCR analysis of the expression level of G9a in Z-Red ESCs, CIPOE NSCs, CIPOE NSCs with control shRNA or G9a-targeted shRNA. The mRNA abundance was normalized to the levels in CIPOE cells. Values represent mean+SEM (n=3; * P<0.01, Students t-test). […] Shown are results from cell fusion experiments between Z-Red and CIPOE, CIPOE-shControl, or CIPOE-shG9a cells. Values represent mean+SEM (n=3; *- P<0.01 Students t-test). (C) Summary of reprogramming efficacy. Cumulative distribution plots of DsRed+ population with graded GFP fluorescence intensities are shown for comparison of the reprogramming efficacy of Z-Red ESCs with CIPOE-shControl, or CIPOE-shG9a cells at day 2 and day 4 after cell fusion. Values represent mean±SEM (n=3; *: P<0.01, Kolmogorov-Smirnov test).
Next, the molecular identities of epigenetic factors that play critical roles in reprogramming were examined. […] Using a previously validated small short-hairpin RNA (shRNA) for mouse G9a, the expression of endogenous G9a was knocked down in CIPOE cells, as shown by quantitative real-time PCR (FIG. 7A). […]
as §2

[5] = 100 nM, applied only during the first 48 hours after fusion

Molecule: CCCCCCCCCCCCCCCc1cccc(O)c1C(=O)O [Anacardic acid]
- Effects (on reprogramming) ([1]; 5 μM, applied only during the first 48 hours after fusion): mild reprogramming deficit;

Molecule: CC(/C=C/C(=O)NO)=C\[C@@H](C)C(=O)c1ccc(N(C)C)cc1 [TSA, Trichostatin A]
- Effects (on reprogramming) [1, 5]: pro-differentiation
- Effects (toxicity to the cells) [1, 5]: toxic

Molecule: N[C@@H]1C[C@H]1c1ccccc1 (racemic) [Tranylcypromine]
- Effects (on reprogramming) ([1]; 2 μM, applied only during the first 48 hours after fusion): mild reprogramming deficit

B1: shRNA-G9a: short hairpin RNA for mouse G9a, …, cloned into retroviral vector pUEG (nucleic acid, listed as Mus musculus)
chain: TCTATCGCCTTGAGCCGTTGGCCTTCAGATAGGCTGATTTGGTTGGTGTCTTGCTCTTTCTGTGGGAAGGCTGCGGCTCACTTCCTTCTGACTTCTTGATAATTTTGCATTAGACATTTAACTCTTCTTTCTATGATCTTTCCTTCTAGACACTGAGTTTTTTGGTTGTTGCCTAAAACCTTTTCAGAAATCCCTTCCCTCGCCATCACACTGACATGAGTGTGGGTCTTCCTGGTCCCCACAGTTTGCCTAGTTCTGAGGAAGCATCGAATTCTGGGAACGCCTCATCAATGCCTGCAGTTTTTCATCCCGAGAACTATTCTTGCTTACAAGGGTCTGCTACTGAGATGCTCTGCACAGAGGCTGCCTCTCCTCGCCCTTCCTCTGAAGACCTGCCTCTTCAAGGCAGCCCTGATTCTTCTACCAGTCCCAAACAAAAGCTCTCAAGTCCTGAGGCTGACAAGGGCCCTGAGGAGGAGGAGAACAAGGTCCTTGCCAGGAAGCAGAAGATGCGGACTGTGTTCTCTCAGGCCCAGCTGTGTGCACTCAAGGACAGGTTTCAGAAGCAGAAGTACCTCAGCCTCCAGCAGATGCAAGAACTCTCCTCCATTCTGAACCTGAGCTATAAGCAGGTTAAGACCTGGTTTCAAAACCAAAGGATGAAGTGCAAGCGGTGGCAGAAAAACCAGTGGTTGAAGACTAGCAATGGTCTGATTCAGAAGGGCTCAGCACCAGTGGAGTATCCCAGCATCCATTGCAGCTATCCCCAGGGCTATCTGGTGAACGCATCTGGAAGCCTTTCCATGTGGGGCAGCCAGACTTGGACCAACCCAACTTGGAGCAGCCAGACCTGGACCAACCCAACTTGGAACAACCAGACCTGGACCAACCCAACTTGGAGCAGCCAGGCCTGGACCGCTCAGTCCTGGAACGGCCAGCCTTGGAATGCTGCTCCGCTCCATAACTTCGGGGAGGACTTTCTGCAGCCTTACGTACAGTTGCAGCAAAACTTCTCTGCCAGTGATTTGGAGGTGAATTTGGAAGCCACTAGGGAAAGCCATGCGCATTTTAGCACCCCACAAGCCTTGGAATTATTCCTGAACTACTCTGTGACTCCACCAGGTGAAATATGAGACTTACGCAACATCTGGGCTTAAAGTCAGGGCAAAGCCAGGTTCCTTCCTTCTTCCAAATATTTTCATATTTTTTTTAAAGATTTATTTATTCATTATATGTAAGTACACTGTAGCTGTCTTCAGACACTCCAGAAGAGGGCGTCAGATCTTGTTACGTATGGTTGTGAGCCACCATGTGGTTGCTGGGATTTGAACTCCTGACCTTCGGAAGAGCAGTCGG
modifications: cloned into retroviral vector pUEG
notes: short hairpin RNA for mouse G9a, …, cloned into retroviral vector pUEG
- expression of endogenous Oct4 ([2]; adult NSCs, conventional and quantitative PCR): partially re-activated
- mRNA abundance of Oct4 expression ([2]; bulk adult NSC cultures, relative to that in ESCs): around 10%
- DNA methylation in Oct4 promoter regions [3]: considerably decreased
- increase in the reprogramming frequency ([1]; day 2, expressed in CIPOE NSCs): 110%
- efficacy of ESC-induced Oct4-GFP re-activation ([1]; day 2 and day 4, expressed in CIPOE NSCs): significantly enhanced
- increase in the reprogramming frequency ([1]; day 4, expressed in CIPOE NSCs): 26%
- expression of endogenous G9a [4]: knocked down

Source: patent US20110136145A1, “METHODS FOR PROMOTING FUSION AND REPROGRAMMING OF SOMATIC CELLS” (THE JOHNS HOPKINS UNIVERSITY, priority 2008, published 2011)
